One block for each molecule: values may come before it.
Legend:
[1] = biological target: recombinant human EDA protein (extra-domain A of fibronectin), His-tagged (human) (UniProt P02751); test: flow cytometry, CD4+ control PSMA CAR-T cells incubated with soluble human His-EDA (50 µg/ml per legend paragraph 32), anti-His-APC; light grey histogram, lower number of the panel humanEDA, CD4 row [cont.) C]
[2] = biological target: recombinant mouse EDA protein (extra-domain A of fibronectin), His-tagged (mouse) (UniProt P11276); test: flow cytometry, CD4+ control PSMA CAR-T cells incubated with soluble mouse His-EDA (50 µg/ml per legend paragraph 32), anti-His-APC; light grey histogram, lower number of the panel mouseEDA, CD4 row [cont.) C]
recombinant mouse EDA protein (extra-domain A of fibronectin), His-tagged (mouse), sequence (P11276 1721-1810 limits assumed): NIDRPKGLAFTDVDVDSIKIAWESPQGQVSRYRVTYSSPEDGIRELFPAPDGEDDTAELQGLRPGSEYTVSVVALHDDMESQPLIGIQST

[3] = biological target: recombinant human EDA protein (extra-domain A of fibronectin), His-tagged (human) (UniProt P02751); test: flow cytometry, CD8+ control PSMA CAR-T cells incubated with soluble human His-EDA (50 µg/ml per legend paragraph 32), anti-His-APC; light grey histogram, lower number of the panel humanEDA, CD8 row [cont.) C]
[4] = biological target: recombinant mouse EDA protein (extra-domain A of fibronectin), His-tagged (mouse) (UniProt P11276); test: flow cytometry, CD8+ control PSMA CAR-T cells incubated with soluble mouse His-EDA (50 µg/ml per legend paragraph 32), anti-His-APC; light grey histogram, lower number of the panel mouseEDA, CD8 row [cont.) C]
[5] = biological target: T1, recombinant mouse EDA protein (extra-domain A of fibronectin), His-tagged (mouse, UniProt P11276 1721-1810); test: IFN-gamma release (ELISA) by CAR-T cells on EDA-coated plates, 48 h (functional read-out, not direct binding)
T1 construct: Recombinant protein carrying a His tag; also called murine EDA; EDA (m)
T1 sequence (P11276 1721-1810 limits assumed): as above
Experimental: Also CAR-T cells were plated for 24 h in the presence of irradiated PM299L-EDA and PM299L-Thy1.1 cells. The number of IFN-γ producing cells was measured by ELISPOT as described by Lozano et al. (Lozano T et al., 2019). CAR-T cell proliferation and IFN-γ production were measured by 3H-thymidine incorporation (0.5 μCi per well) and ELISA, respectively, as described by Casares et al. (Casares N et al., 2010). In some cases, CAR-T cell proliferation was measured by Cell trace violet (CTV) dilution assay; Lymphocytes were incubated with the dye (5 μM) for 15 minutes at 37° C. and washed with RPMI 10% FBS. 8×10⁵ labelled lymphocytes were plated and co-incubated with PM299L-EDA^high and PM299L-Thy1.1 tumor cells at a ratio of 1:1 for 72 hours at 37° C. Subsequently, the proliferating population (measured by CTV dilution) was analyzed within GFP+ lymphocytes. The proliferation index was calculated as the ratio between proliferating cells in the presence of tumor cells expressing EDA (PM299L-EDA^high) and the number of proliferating cells in the presence of tumor cells not expressing EDA (PM299L. Thy1.1) at the end of the co-culture.
EDA CAR-T cells were generated by retroviral transduction of CD4⁺ or CD8⁺ T cells with the corresponding retrovirus. Five days after infection, T cells were analyzed by flow cytometry. […] IFN-g released to the culture supernatant was measured by ELISA.

[6] = biological target: T2, recombinant human EDA protein (extra-domain A of fibronectin), His-tagged (human, UniProt P02751 1722-1811); test: Bio-Layer Interferometry (Octet N1), scFv F8 on AR2G biosensors, soluble EDA
T2 construct: Recombinant protein carrying a His tag; also called hEDA; EDA (h)
T2 sequence (P02751 1722-1811 limits assumed): as the sequence (P11276 1721-1810 limits assumed) above, with R44H, D54E, I87T counted along it
Experimental: (§1) The resulting plasmid was transfected into BL21(DE3) cells for the expression of the recombinant scFv which was purified by affinity chromatography using protein A Sepharose (Amersham Biosciences) according to the manufacturer's instructions. Purified antibody fragments were analyzed by Coomassie and Western blot using anti-His antibodies. Recognition of EDA protein by the purified scFv F8 fragment was tested by ELISA using plates coated with recombinant EDA protein produced as described previously (Lasarte J J et al., 2007). The equilibrium dissociation constant (KD) of scFv F8 to soluble human and mouse EDAs was calculated by Bio-Layer Interferometry (BLI) using an Octet N1 (Sartorius) (FIG. 13). The scFv F8 was coated to the AR2G Biosensors (Fortébio) following manufacturer's instructions.
(§2) To evaluate the functionality of the CAR construct, EDA CAR-T cells were cultured in EDA coated plates for 48 h. Both CD4+ and CD8+ EDA CAR-T, but not PSMA CAR-T cells produced high amounts of IFN-γ (FIG. 3D) and proliferated in response to EDA (FIG. 3E). […] This discrepancy could be due to the methodological differences between assays. Indeed, in the binding experiments EDA proteins are added in solution and bind to the CAR-T cells directly. […]

[7] = biological target: T1, recombinant mouse EDA protein …; test: as above
Experimental: as §1, §2

[8] = biological target: T2, recombinant human EDA protein …; test: Bio-Layer Interferometry (Octet N1), scFv F8 on AR2G biosensors, soluble hEDA at 1, 2, 4 and 8 uM; table column Kd (1/s) [cont.) E]
From the text: as §1, with “A DNA sequence coding for the scFv recombinant antibody fragment F8 (Rybak J N et al., 2007) was cloned in pET20b plasmid (Novagen), which enables expression of fusion proteins carrying six histidine residues at the carboxyl terminus. The resulting” for “The resulting”

[9] = biological target: T1, recombinant mouse EDA protein …; test: Bio-Layer Interferometry (Octet N1), scFv F8 on AR2G biosensors, soluble mEDA at 1, 2, 4 and 8 uM; table column Kd (1/s) [cont.) E]
From the text: as §1, with “A DNA sequence coding for the scFv recombinant antibody fragment F8 (Rybak J N et al., 2007) was cloned in pET20b plasmid (Novagen), which enables expression of fusion proteins carrying six histidine residues at the carboxyl terminus. The resulting” for “The resulting”

recombinant human EDA protein (extra-domain A of fibronectin), His-tagged (human), sequence (P02751 1722-1811 limits assumed): as the sequence (P11276 1721-1810 limits assumed) above, with R44H, D54E, I87T counted along it

MFI (mean fluorescence intensity) [1]: 269
MFI (mean fluorescence intensity) [2]: 49
MFI (mean fluorescence intensity) [3]: 203
MFI (mean fluorescence intensity) [4]: 46
Molecule: PSMA CAR (anti-human PSMA scFv from mouse hybridoma J591 in the murine 4-1BB-CD3zeta cassette) on mouse T cells

B1: chimeric EDA CAR with anti-EDA C27 scFv (VH/VL of antibody 27A12.70) in the murine 4-1BB-CD3zeta cassette, on mouse T cells (other)
chain: DVQLQESGPDLVKPSQSLSLTCTVTGYSITSGYSWHWIRQFPGNKLEWMGYIHYSGIANYNPSLKSRISITRDTSKNHFFLQLNSVTTEDTATYYCATEKTGFFDYWGQGTTLTVSSGGGGSGGGGSGGGGSGGGGSDVVMTQTPLSLPVSLGDQASISCRSSQSLVHSNGNTYLHWYLQKPGQSPKLLIYKVSNRFSGVPDRFSGSGSGTDFTLKISRVEAEDLGVYFCSQSAHVPPTFGGGTKLEIKR
notes: also called C27 EDA CAR-T; clone C27; not shown: limits on that entry
binding result [5]: no binding (tested: 5 µg/ml coated (FIG. 14 legend))

Kd [6]: 77.6 nM
Kd [7]: 99.5 nM
koff [8]: 0.000532 s⁻¹
koff [9]: 0.000342 s⁻¹
B2: anti-EDA F8 scFv (purified recombinant antibody fragment) (scFv)
scFv: EVQLLESGGGLVQPGGSLRLSCAASGFTFSVMKMSWVRQAPGKGLEWVSAISGSGGSTYYADSVKGRFTISRDNSKNTLYLQMNSLRAEDTAVYYCAKSTHLYLFDYWGQGTLVTVSSGGGGSGGGGSGGGGSGGGGSEIVLTQSPGTLSLSPGERATLSCRASQSVSNAFLAWYQQKPGQAPRLLIYGASSRATGIPDRFSGSGSGTDFTLTISRLEPEDFAVYYCQQMRGRPPTFGQGTKVEIKHHHHHH
notes: Expressed in E. coli BL21(DE3) from pET20b and purified on protein A Sepharose; also called scFv F8; scFv (F8)
